In article PMC11851098 (Nucleic Acids Research, 2025):

How the values were obtained:
SAXS = molecular target: the molecule itself; experiment: SAXS
Suv3 helicase = molecular target: T1, Suv3 helicase (UniProt Q8IYB8 23-786, Alexa 647 label (site not stated) in the MST assay); experiment: MST
T1 sequence (looked up): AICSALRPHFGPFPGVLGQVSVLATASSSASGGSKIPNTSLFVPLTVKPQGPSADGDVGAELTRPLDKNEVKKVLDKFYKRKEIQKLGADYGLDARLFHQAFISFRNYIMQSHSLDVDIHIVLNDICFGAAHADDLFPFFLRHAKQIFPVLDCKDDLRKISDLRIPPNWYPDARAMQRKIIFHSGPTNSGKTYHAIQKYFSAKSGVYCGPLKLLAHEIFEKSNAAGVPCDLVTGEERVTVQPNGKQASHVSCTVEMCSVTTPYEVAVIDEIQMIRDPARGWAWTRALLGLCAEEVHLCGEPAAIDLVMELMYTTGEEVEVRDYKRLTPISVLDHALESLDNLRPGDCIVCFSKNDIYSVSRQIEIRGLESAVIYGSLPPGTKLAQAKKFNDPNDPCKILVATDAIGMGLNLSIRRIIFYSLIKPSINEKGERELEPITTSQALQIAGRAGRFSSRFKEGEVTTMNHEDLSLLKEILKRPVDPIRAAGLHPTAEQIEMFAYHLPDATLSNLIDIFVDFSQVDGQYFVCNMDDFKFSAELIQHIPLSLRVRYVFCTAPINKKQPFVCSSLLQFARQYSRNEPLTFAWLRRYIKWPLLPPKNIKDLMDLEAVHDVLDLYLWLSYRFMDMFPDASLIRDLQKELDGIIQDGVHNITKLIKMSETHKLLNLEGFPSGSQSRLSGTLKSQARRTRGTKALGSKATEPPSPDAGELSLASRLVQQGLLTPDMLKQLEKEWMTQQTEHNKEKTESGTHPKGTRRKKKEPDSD

B1: hPNPase P467S mutant, residues 46-783 (enzyme, human, UniProt Q8TCS8 46-783, looked up)
chain: AVAVDLGNRKLEISSGKLARFADGSAVVQSGDTAVMVTAVSKTKPSPSQFMPLVVDYRQKAAAAGRIPTNYLRREIGTSDKEILTSRIIDRSIRPLFPAGYFYDTQVLCNLLAVDGVNEPDVLAINGASVALSLSDIPWNGPVGAVRIGIIDGEYVVNPTRKEMSSSTLNLVVAGAPKSQIVMLEASAENILQQDFCHAIKVGVKYTQQIIQGIQQLVKETGVTKRTPQKLFTPSPEIVKYTHKLAMERLYAVFTDYEHDKVSRDEAVNKIRLDTEEQLKEKFPEADPYEIIESFNVVAKEVFRSIVLNEYKRCDGRDLTSLRNVSCEVDMFKTLHGSALFQRGQTQVLCTVTFDSLESGIKSDQVITAINGIKDKNFMLHYEFPPYATNEIGKVTGLNRRELGHGALAEKALYPVIPRDFSFTIRVTSEVLESNGSSSMASACGGSLALMDSGVPISSAVAGVAIGLVTKTDPEKGEIEDYRLLTDILGIEDYNGDMDFKIAGTNKGITALQADIKLPGIPIKIVMEAIQQASVAKKEILQIMNKTISKPRASRKENGPVVETVQVPLSKRAKFVGPGGYNLKKLQAETGVTISQVDEETFSVFAPTPSAMHEARDFITEICKDDQEQQLEFGAVYTATITEIRDTGVMVKLYPNMTAVLLHNTQLDQRKIKHPTALGLEVGQEIQVKYFGRDPADGRMRLSRKVLQSPATTVVRTLNDRSSIVMGEPISQSSSNSQ
stoichiometry N (SAXS): 3
Kd (Suv3 helicase): 386 ± 64 nM
